Data on 35 molecules can be found in patent US20240392020A1 (JIANGSU HENGRUI PHARMACEUTICALS, published 2024).

T1: CEA on MKN45 cells (UniProt P06731 35-685)
T1 construct: whole, on cells
T1 sequence (looked up): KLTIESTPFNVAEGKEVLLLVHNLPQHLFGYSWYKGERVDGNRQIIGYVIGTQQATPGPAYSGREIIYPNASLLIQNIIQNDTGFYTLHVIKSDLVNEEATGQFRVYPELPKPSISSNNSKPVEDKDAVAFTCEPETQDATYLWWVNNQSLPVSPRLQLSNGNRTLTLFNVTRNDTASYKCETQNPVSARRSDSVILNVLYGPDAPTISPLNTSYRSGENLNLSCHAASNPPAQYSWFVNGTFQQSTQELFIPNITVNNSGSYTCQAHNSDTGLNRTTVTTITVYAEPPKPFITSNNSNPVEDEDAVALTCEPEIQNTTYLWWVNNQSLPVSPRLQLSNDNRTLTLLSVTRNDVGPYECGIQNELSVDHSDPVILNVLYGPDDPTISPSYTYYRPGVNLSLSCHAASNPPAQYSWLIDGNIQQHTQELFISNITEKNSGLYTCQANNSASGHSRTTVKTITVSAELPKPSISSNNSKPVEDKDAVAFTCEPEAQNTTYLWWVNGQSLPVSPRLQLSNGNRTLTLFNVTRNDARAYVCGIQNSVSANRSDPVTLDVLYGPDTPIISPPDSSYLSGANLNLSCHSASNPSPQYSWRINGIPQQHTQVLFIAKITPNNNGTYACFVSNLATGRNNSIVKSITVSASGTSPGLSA

T2: B7H3 on the recombinant cell line CT26-B7H3 (UniProt Q5ZPR3 29-534, limits assumed)
T2 construct: whole, on cells
T2 sequence (looked up): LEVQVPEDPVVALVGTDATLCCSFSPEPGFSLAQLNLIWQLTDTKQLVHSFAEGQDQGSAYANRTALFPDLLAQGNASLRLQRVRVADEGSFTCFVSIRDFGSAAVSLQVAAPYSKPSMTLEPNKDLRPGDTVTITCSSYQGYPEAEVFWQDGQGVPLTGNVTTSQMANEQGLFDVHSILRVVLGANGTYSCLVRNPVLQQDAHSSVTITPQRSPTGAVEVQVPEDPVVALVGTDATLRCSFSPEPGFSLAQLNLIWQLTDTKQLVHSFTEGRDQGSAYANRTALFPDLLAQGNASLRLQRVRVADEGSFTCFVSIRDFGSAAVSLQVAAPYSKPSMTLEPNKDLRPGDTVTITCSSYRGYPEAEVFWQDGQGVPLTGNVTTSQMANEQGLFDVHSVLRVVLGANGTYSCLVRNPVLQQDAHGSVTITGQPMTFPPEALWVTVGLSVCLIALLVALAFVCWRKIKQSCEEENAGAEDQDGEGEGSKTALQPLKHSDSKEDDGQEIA

B1: N11 (antibody)
heavy: not shown
light: EIVLTQSPGTLSLSPGERATLSCRASQNINNRFLAWYQQRPGQAPRLLIYAASSRATGVPDRFSGSGSGTDFTLTISRLEAEDFAMYHCQQYGSFPRTFGQGTMVDIKSGAPRFKTRPKAFVVSVGKDATLSSQIVGNPTPQVSWEKDQQPVAAGARFRLAQDGDLYRLKILDLALGDSGQYVSRARNAIGEAFACVGLQVDAEA
B2: N16 (antibody)
heavy: not shown
light: B1 light with K115L, K119L, K170H
B3: N13 (antibody)
heavy: not shown
light: B1 light with K170H
B4: N12 (antibody)
heavy: not shown
light: B1 light with K170H
B5: N10 (antibody)
heavy: not shown
light: B1 light with K115L, K170T
B6: N15 (antibody)
heavy: not shown
light: B1 light with K115L, K119L
B7: N14 (antibody)
heavy: not shown
light: B1 light with K115L, K119L
B8: N25 (antibody)
heavy: not shown
light: EIVLTQSPGTLSLSPGERATLSCRASQNINNRFLAWYQQRPGQAPRLLIYAASSRATGVPDRFSGSGSGTDFTLTISRLEAEDFAMYHCQQYGSFPRTFGQGTMVDIKGGGGSGGGGSSGAPRFLTRPKAFVVSVGKDATLSSQIVGNPTPQVSWEKDQQPVAAGARFRLAQDGDLYRLTILDLALGDSGQYVSRARNAIGEAFACVGLQVDAEA
B9: N27 (antibody)
heavy: not shown
light: B8 light
B10: N17 (antibody)
heavy: not shown
light: EIVLTQSPGTLSLSPGERATLSCRASQNINNRFLAWYQQRPGQAPRLLIYAASSRATGVPDRFSGSGSGTDFTLTISRLEAEDFAMYHCQQYGSFPRTFGQGTMVDIKDQPQFSGAPRFLTRPKAFVVSVGKDATLSSQIVGNPTPQVSWEKDQQPVAAGARFRLAQDGDLYRLTILDLALGDSGQYVSRARNAIGEAFACVGLQVDAEA
B11: N26 (antibody)
heavy: not shown
light: B10 light with D109G, Q110G, P111G, Q112G, F113S
B12: N20 (antibody)
heavy: not shown
light: B10 light with L120K, T175K
B13: N24 (antibody)
heavy: not shown
light: B10 light with L120R, T175H
B14: N19 (antibody)
heavy: not shown
light: B10 light with L120K, T175K
B15: N18 (antibody)
heavy: not shown
light: B10 light
B16: N23 (antibody)
heavy: not shown
light: B10 light with L120R, T175H
B17: N21 (antibody)
heavy: not shown
light: B10 light with L120K, T175H
B18: N22 (antibody)
heavy: not shown
light: B10 light with L120R, T175K
B19: PL-1 (bispecific antibody, human IgG1, kappa, L234A L235A)
heavy 1: not shown
light 1: DIVLTQSPASLAVSPGQRATITCRASESVSIHGTHLMHWYQQKPGQPPKLLIYAASKLESGVPARFSGSGSGTDFTLTINPVEAEDTANYYCQQSFEDPLTFGQGTKLEIKGGGGSGIPPKIECLPIDISIDEGKVLTVASAFTGEPTPEVTWSTGGRKIHSQEQGRFHIENTDDLTTLIIKDVQKQDGGLYTLTLRNEFGSDSATVNIHIRSI
heavy 2: not shown
light 2: not shown
B20: PL-11 (bispecific antibody, human IgG1, kappa, L234A L235A)
heavy 1: not shown
light 1: B19 light 1 with G112R, G113T, G114V, G115A, L176S, I180T
heavy 2: not shown
light 2: not shown
B21: PL-15 (bispecific antibody, human IgG1, kappa, L234A L235A)
heavy 1: not shown
light 1: B19 light 1 with G112R, G113T, G114V, G115A, V136C, L176S, I180T
heavy 2: not shown
light 2: not shown
B22: PL-13 (bispecific antibody, human IgG1, kappa, L234A L235A)
heavy 1: not shown
light 1: B19 light 1 with G112R, G113T, G114V, G115A, A142C, L176S, I180T
heavy 2: not shown
light 2: not shown
B23: PL-14 (bispecific antibody, human IgG1, kappa, L234A L235A)
heavy 1: not shown
light 1: B19 light 1 with G112R, G113T, G114V, G115A, L176S, I180T
heavy 2: not shown
light 2: not shown
B24: PL-12 (bispecific antibody, human IgG1, kappa, L234A L235A)
heavy 1: not shown
light 1: B19 light 1 with G112R, G113T, G114V, G115A, V136C, L176S, I180T
heavy 2: not shown
light 2: not shown
B25: PL-8 (bispecific antibody, human IgG1, kappa, L234A L235A)
heavy 1: not shown
light 1: B19 light 1 with L176S, I180T
heavy 2: not shown
light 2: not shown
B26: PL-10 (bispecific antibody, human IgG1, kappa, L234A L235A)
heavy 1: not shown
light 1: B19 light 1 with A142C, L176S, I180T
heavy 2: not shown
light 2: not shown
B27: PL-2 (bispecific antibody, human IgG1, kappa, L234A L235A)
heavy 1: not shown
light 1: B19 light 1 with L176S, I180T
heavy 2: not shown
light 2: not shown
B28: PL-7 (bispecific antibody, human IgG1, kappa, L234A L235A)
heavy 1: not shown
light 1: B19 light 1 with A142C, L176S, I180T
heavy 2: not shown
light 2: not shown
B29: PL-4 (bispecific antibody, human IgG1, kappa, L234A L235A)
heavy 1: not shown
light 1: B19 light 1 with A142C, L176S, I180T
heavy 2: not shown
light 2: not shown
B30: PL-6 (bispecific antibody, human IgG1, kappa, L234A L235A)
heavy 1: not shown
light 1: B19 light 1 with V136C, L176S, I180T
heavy 2: not shown
light 2: not shown
B31: PL-9 (bispecific antibody, human IgG1, kappa, L234A L235A)
heavy 1: not shown
light 1: B19 light 1 with V136C, L176S, I180T
heavy 2: not shown
light 2: not shown
B32: PL-5 (bispecific antibody, human IgG1, kappa, L234A L235A)
heavy 1: not shown
light 1: B19 light 1 with L176S, I180T
heavy 2: not shown
light 2: not shown
B33: PL-3 (bispecific antibody, human IgG1, kappa, L234A L235A)
heavy 1: not shown
light 1: B19 light 1 with V136C, L176S, I180T
heavy 2: not shown
light 2: not shown
B34: F33 (antibody)
heavy: not shown
light: DTVVTQEPSFSVSPGGTVTLTCGLSSGSVSTSHYPSWYQQTPGQAPRMLIYNTNTRSSGVPDRFSGSILGNKAALTITGAQADDESDYYCAIHVDRDIWVFGGGTKLTVLGGGGSSGAPRFLTRPKAFVVSVGKDATLSSQIVGNPTPQVSWEKDQQPVAAGARFRLAQDGDLYRLTILDLALGDSGQYVSRARNAIGEAFACVGLQVDAEA
B35: F34 (antibody)
heavy: not shown
light: DTVVTQEPSFSVSPGGTVTLTCGLSSGSVSTSHYPSWYQQTPGQAPRMLIYNTNTRSSGVPDRFSGSILGNKAALTITGAQADDESDYYCAIHVDRDIWVFGGGTKLTVLGGGGSGGGGSSGAPRFLTRPKAFVVSVGKDATLSSQIVGNPTPQVSWEKDQQPVAAGARFRLAQDGDLYRLTILDLALGDSGQYVSRARNAIGEAFACVGLQVDAEA

Substitutions are numbered along the chain they refer to.

T3 sequence (Q9NZQ7 19-239 limits assumed): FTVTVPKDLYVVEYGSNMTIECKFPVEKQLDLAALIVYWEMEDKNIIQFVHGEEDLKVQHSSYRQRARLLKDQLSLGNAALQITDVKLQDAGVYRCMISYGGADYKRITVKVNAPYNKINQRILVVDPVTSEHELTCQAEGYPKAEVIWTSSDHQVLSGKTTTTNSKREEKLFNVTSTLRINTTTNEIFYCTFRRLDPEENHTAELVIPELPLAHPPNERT

One test concerns the target T1, CEA on MKN45 cells. Put plainly: FACS, MKN45 cells.
As for B1, a half-maximal response (EC50) required 5 nM.

The molecule B2 had an EC50 of 3.4 nM.

B3 returned an EC50 of 2.9 nM. Same read-out and setting: as for B4, the figure is 5.3 nM; as for B5, 3 nM; as for B6, 2.6 nM. Same read-out and setting: as for B7, the figure is 1.9 nM; as for B8, 0.62 nM. In the case of B9, a half-maximal response (EC50) required 0.67 nM. For B10, the EC50 is 2.2 nM. B11 gave an EC50 of 0.84 nM. Still for that read-out and setting: as for B12, the figure is 2.8 nM; as for B13, 6.7 nM; as for B14, 4.3 nM. Still for that read-out and setting: as for B15, the figure is 3.2 nM. Same read-out and setting: as for B16, the figure is 9.4 nM; as for B17, 5.2 nM; as for B18, 4.5 nM.

The next test addresses T3, hPDL1 antigen (human, UniProt Q9NZQ7 19-239, limits assumed).
T3 construct: bought
Put plainly: ELISA.
Method: For an antibody targeting a soluble protein, the binding activity of the antibody against the soluble protein was detected by ELISA. […] After the blocking was completed, the blocking solution was discarded; and the plate was washed 3 times with a PBST buffer (pH 7.4, PBS containing 0.1% tween-20). 100 μL of the antibody solution diluted in a gradient was added to each well, and the mixture was incubated at 37° C. for 1 h. After the incubation was completed, the plate was washed 3 times with PBST. […] The plate was washed 3 times with PBST. […] The reaction was stopped by adding 50 μL of 1 M H₂SO₄ to each well. The absorbance values at 450 nm were read on a microplate reader, the binding curves of the antibodies to an antigen were fitted with software, and the EC₅₀ values were calculated.
B19 yielded an EC50 of 1.6 nM. The same measure, in the same setting: as for B20, the figure is 0.6 nM. On to B21, for which the EC50 was 1.4 nM. Still for that read-out and setting: as for B22, the figure is 0.5 nM; as for B23, 1.3 nM. B24 gave an EC50 of 0.5 nM.

In the case of B25, the EC50 turned out to be 1.4 nM.

In the case of B26, the EC50 came to 0.6 nM. On the same count and under the same terms, as for B27, the figure is 0.5 nM; as for B28, 0.5 nM; as for B29, 0.7 nM. On the same count and under the same terms, as for B30, the figure is 0.8 nM; as for B31, 0.6 nM. In turn, B32 showed an EC50 of 0.7 nM.

The molecule B33 had an EC50 of 0.6 nM.

The target of the next test is T2, B7H3 on the recombinant cell line …. Put plainly: FACS, CT26-B7H3 cells. A general note: Flow cytometry measures light scatter and fluorescence of single cells or particles in a stream.
As to B34, the EC50 came to 1.92 nM.

For the molecule B35, the EC50 is 2.38 nM.

As usually defined, the EC50 is the concentration needed to bring the measured effect to its halfway point.
